How the values were obtained:
[1] = biological target: Fdh3B-CodhA fusion protein with (GGGGS)1 linker (Thermococcus onnurineus NA1); assay: SEC; Strep-tag purified CFOR complex on a calibrated Superdex 200 10/300 GL column in buffer W, 0.5 ml/min, anaerobic; complex formed in cells and co-purified beforehand
[2] = biological target: Formate dehydrogenase catalytic subunit Fdh3A with N-terminal Strep-tag (Thermococcus onnurineus NA1); assay: as above

Substance	stoichiometry N [1]	stoichiometry N [2]
CO dehydrogenase catalytic subunit CodhB (enzyme)	2	–
Fdh3B-CodhA fusion protein with (GGGGS)1 linker	–	1

From publication PMC9166738
